Data on three molecules can be found in article PMC12518824 (Nature Communications, 2025).

The target of experiment [1] is T1, Munc13-4 (full-length human, recombinant) (human, UniProt Q70J99 1-1090).
T1 sequence (looked up): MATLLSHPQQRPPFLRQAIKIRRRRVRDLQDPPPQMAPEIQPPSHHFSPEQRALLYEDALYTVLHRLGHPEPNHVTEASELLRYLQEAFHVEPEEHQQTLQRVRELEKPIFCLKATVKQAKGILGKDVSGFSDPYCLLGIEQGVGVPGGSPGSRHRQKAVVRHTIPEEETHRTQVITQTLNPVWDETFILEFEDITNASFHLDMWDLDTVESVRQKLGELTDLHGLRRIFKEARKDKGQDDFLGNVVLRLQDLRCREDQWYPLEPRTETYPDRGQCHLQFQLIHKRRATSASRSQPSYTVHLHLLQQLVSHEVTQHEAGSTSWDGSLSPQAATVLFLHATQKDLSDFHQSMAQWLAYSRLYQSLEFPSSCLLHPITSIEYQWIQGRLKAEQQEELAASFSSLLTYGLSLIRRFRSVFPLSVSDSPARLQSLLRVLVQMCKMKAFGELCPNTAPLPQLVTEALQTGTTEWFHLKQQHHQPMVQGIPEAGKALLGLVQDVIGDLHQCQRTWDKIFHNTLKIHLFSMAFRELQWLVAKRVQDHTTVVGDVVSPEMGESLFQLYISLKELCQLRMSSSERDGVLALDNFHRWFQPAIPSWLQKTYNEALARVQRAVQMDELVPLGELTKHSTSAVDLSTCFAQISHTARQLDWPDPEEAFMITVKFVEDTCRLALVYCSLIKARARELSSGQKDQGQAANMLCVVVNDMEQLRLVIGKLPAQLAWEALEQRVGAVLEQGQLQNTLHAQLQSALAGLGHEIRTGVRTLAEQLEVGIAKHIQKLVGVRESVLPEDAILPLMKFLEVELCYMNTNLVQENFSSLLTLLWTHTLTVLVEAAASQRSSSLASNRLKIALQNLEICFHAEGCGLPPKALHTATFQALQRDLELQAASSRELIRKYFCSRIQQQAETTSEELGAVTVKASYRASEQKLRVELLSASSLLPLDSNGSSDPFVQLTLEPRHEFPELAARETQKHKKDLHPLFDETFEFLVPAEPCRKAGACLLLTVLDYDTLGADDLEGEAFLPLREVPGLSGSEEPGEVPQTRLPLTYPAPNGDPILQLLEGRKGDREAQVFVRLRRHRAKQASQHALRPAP
In words: pull-down.

Experiment [2] addresses T2, syntaxin-4 ΔTM (residues 1–275) (human, UniProt Q12846 1-275).
T2 sequence (looked up): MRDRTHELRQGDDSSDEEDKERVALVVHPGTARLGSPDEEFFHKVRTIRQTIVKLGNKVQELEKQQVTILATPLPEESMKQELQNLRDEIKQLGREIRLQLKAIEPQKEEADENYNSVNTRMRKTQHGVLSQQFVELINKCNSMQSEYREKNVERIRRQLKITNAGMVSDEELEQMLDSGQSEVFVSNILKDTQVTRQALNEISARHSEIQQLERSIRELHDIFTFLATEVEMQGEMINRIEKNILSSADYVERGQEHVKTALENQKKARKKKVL
The experiment can be described thus: FRET or BRET. A general note: In BRET a luciferase serves as donor, and the signal depends on an acceptor being close.

B1: GST-Rab27a (full-length) (natural protein, human, UniProt P51159 1-221, looked up)
chain: MSDGDYDYLIKFLALGDSGVGKTSVLYQYTDGKFNSKFITTVGIDFREKRVVYRASGPDGATGRGQRIHLQLWDTAGQERFRSLTTAFFRDAMGFLLLFDLTNEQSFLNVRNWISQLQMHAYCENPDIVLCGNKSDLEDQRVVKEEEAIALAEKYGIPYFETSAANGTNISQAIEMLLDLIMKRMERCVDKSWIPEGVVRSNGHASTDQLSEEKEKGACGC
Consider B1, for which the binding result in experiment [1] is recorded as “binds”.

B2: VAMP-7 SNARE motif (residues 123–187, A131C) labeled with BODIPY FL (domain or fragment, human, UniProt P51809 123-187, looked up)
chain: LDKVMETQC(BODIPY FL)QVDELKGIMVRNIDLVAQRGERLELLIDKTENLVDSSVTFKTTSRNLARAMCMKNL
For the molecule B2, the binding result in experiment [2] is “binds”.

B3: GST-VAMP-7 SNARE motif (residues 123–187) (domain or fragment, human, UniProt P51809 123-187, looked up)
chain: LDKVMETQAQVDELKGIMVRNIDLVAQRGERLELLIDKTENLVDSSVTFKTTSRNLARAMCMKNL
B3: in experiment [1], the binding result is recorded as “binds”.
